Test results taken from patent US20220119534A1 (DRAGONFLY THERAPEUTICS, published 2022).
Where “and” joins values, the source holds several entries; their conditions need not be identical. Identical values can stand only once. One block for each binder: values may come before it.

Legend:
[1] = molecular target: T1, human NKG2D on effector cells (human, UniProt P26718 1-216); test: cell-based or functional assay
T1 sequence (looked up): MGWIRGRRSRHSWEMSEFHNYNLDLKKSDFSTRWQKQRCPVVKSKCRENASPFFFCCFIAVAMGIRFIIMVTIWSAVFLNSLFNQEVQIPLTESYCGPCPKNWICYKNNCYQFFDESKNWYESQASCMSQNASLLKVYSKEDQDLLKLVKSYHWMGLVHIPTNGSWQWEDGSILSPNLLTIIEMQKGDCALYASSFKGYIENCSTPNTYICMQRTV

[2] = molecular target: T2, Human CLEC12A expressed on cells (Ba/F3-hCLEC12A, PL21, HL60) (human, UniProt Q5QGZ9 1-265); test: cell-based or functional assay
T2 sequence: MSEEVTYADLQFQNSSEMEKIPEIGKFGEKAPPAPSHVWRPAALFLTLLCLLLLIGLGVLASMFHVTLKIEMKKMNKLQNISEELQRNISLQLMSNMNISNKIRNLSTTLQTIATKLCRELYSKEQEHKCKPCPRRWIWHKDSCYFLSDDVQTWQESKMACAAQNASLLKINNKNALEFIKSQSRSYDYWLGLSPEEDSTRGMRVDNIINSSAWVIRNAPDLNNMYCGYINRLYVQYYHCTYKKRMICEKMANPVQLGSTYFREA

[3] = molecular target: T2, Human CLEC12A expressed on cells …; test: cell-based or functional assay; remark: listed apart in the source
[4] = molecular target: T2, Human CLEC12A expressed on cells …; test: cell-based or functional assay; remark: listed apart in the source
[5] = molecular target: T3, recombinant human CLEC12A-His (human, UniProt Q5QGZ9 65-265); test: SPR 37C
T3 construct: also called hCLEC12A-His; hCLEC12A
T3 sequence: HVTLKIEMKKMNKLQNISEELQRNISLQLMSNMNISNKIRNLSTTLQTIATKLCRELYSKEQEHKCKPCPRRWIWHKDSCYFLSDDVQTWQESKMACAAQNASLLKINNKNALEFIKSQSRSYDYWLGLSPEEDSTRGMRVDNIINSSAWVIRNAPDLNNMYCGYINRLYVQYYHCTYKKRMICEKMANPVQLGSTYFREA

[6] = molecular target: T3, recombinant human CLEC12A-His; test: SPR 37C, average
[7] = molecular target: T4, human CLEC12A expressed on cells (human, UniProt Q5QGZ9 1-265); test: flow cytometry, HL60
T4 construct: Transduced isogenic cells or endogenous expression on AML cells; also called RMA-hCLEC12A; Ba/F3-hCLEC12A
T4 sequence: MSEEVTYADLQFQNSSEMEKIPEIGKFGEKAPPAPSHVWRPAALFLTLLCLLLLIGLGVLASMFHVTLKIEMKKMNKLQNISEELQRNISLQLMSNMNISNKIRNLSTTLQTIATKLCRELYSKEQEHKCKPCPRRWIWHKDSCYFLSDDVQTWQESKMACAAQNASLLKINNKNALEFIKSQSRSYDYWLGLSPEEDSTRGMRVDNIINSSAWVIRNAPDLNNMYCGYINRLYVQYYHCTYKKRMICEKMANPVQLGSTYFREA

[8] = molecular target: T4, human CLEC12A expressed on cells; test: flow cytometry, hCLEC12A+ Ba/F3

EC50 nM, KHYG-1-CD16aV-mediated lysis of HL-60 [1]: 2.5 nM
B1: AB0237-Dead-2D (other)
chain: QLQLQESGPGLVKPSETLSLTCTVSGFSLTNYGLHWIRQPPGKCLEWIGVIWSGGKTDYNPSLKSRVTISKDTSKNQFSLKLSSVQAADTAVYYCAKYDYDDSLDYWGQGTLVTVSSGGGGSGGGGSGGGGSGGGGSDIQMTQSPSSLSASVGDRVTITCHASQNINFWLSWYQQKPGKAPKLLIYEASNLHTGVPSRFSGSGSGTRFTLTISSLQPEDIATYYCQQSHSYPLTFGCGTKLEIKGSDKTHTCPPCPAPELLGGPSVFLFPPKPKDTLMISRTPEVTCVVVDVSHEDPEVKFNWYVDGVEVHNAKTKPREEQYNSTYRVVSVLTVLHQDWLNGKEYKCKVSNKALPAPIEKTISKAKGQPREPRVYTLPPCRDELTKNQVSLTCLVKGFYPSDIAVEWESNGQPENNYKTTPPVLVSDGSFTLYSKLTVDKSRWQQGNVFSCSVMHEALHNHYTQKSLSLSPG
heavy: EVQLVESGGGLVKPGGSLRLSCAASGFTFSSYSMNWVRQAPGKGLEWVSSISSSSSYIYYADSVKGRFTISRDNAKNSLYLQMNSLRAEDTAVYYCARGAPIGAAAGWFDPWGQGTLVTVSSASTKGPSVFPLAPSSKSTSGGTAALGCLVKDYFPEPVTVSWNSGALTSGVHTFPAVLQSSGLYSLSSVVTVPSSSLGTQTYICNVNHKPSNTKVDKKVEPKSCDKTHTCPPCPAPELLGGPSVFLFPPKPKDTLMISRTPEVTCVVVDVSHEDPEVKFNWYVDGVEVHNAKTKPREEQYNSTYRVVSVLTVLHQDWLNGKEYKCKVSNKALPAPIEKTISKAKGQPREPQVCTLPPSRDELTENQVSLTCLVKGFYPSDIAVEWESNGQPENNYKTTPPVLDSDGSFFLYSWLTVDKSRWQQGNVFSCSVMHEALHNHYTQKSLSLSPG
light: DIQMTQSPSTLSASVGDRVTITCRASNSISSWLAWYQQKPGKAPKLLIYEASSTKSGVPSRFSGSGSGTEFTLTISSLQPDDFATYYCQQYDDLPTFGGGTKVEIKRTVAAPSVFIFPPSDEQLKSGTASVVCLLNNFYPREAKVQWKVDNALQSGNSQESVTEQDSKDSTYSLSSTLTLSKADYEKHKVYACEVTHQGLSSPVTKSFNRGEC

EC50, rested NK cell lysis of PL21 cells (mean of six donors) [2]: 0.61 nM | EC50, rested NK cells lysis of HL60 cells (mean of four donors) [3]: 0.3 nM | % Max, ADCP activity of M0 macrophages against PL21 cells [4]: 15% | EC50, ADCP activity of M0 macrophages against PL21 cells [4]: 0.03 nM
B2: AB0192 TriNKET (bispecific antibody, human IgG1, kappa)
chain: EVQLVESGGGVVQPGGSLRLSCAASGFTFNAFGMHWVRQAPGKCLEWVAFISSGSTSIYYANTVKGRFTISRDNSKNTLYLQMNSLRAEDTAVYYCARDGYPTGGAMDYWGQGTSVTVSSGGGGSGGGGSGGGGSGGGGSDIQMTQSPSSLSASVGDRVTITCKASQDIYNYLSWFQQKPGKAPKPLIYRANILVSGVPSRFSGSGSGQDYTFTISSLQPEDIATYYCLQFDAFPFTFGCGTKLEIKGSDKTHTCPPCPAPELLGGPSVFLFPPKPKDTLMISRTPEVTCVVVDVSHEDPEVKFNWYVDGVEVHNAKTKPREEQYNSTYRVVSVLTVLHQDWLNGKEYKCKVSNKALPAPIEKTISKAKGQPREPRVYTLPPCRDELTKNQVSLTCLVKGFYPSDIAVEWESNGQPENNYKTTPPVLVSDGSFTLYSKLTVDKSRWQQGNVFSCSVMHEALHNHYTQKSLSLSPG
heavy: EVQLVESGGGLVKPGGSLRLSCAASGFTFSSYSMNWVRQAPGKGLEWVSSISSSSSYIYYADSVKGRFTISRDNAKNSLYLQMNSLRAEDTAVYYCARGAPIGAAAGWFDPWGQGTLVTVSSASTKGPSVFPLAPSSKSTSGGTAALGCLVKDYFPEPVTVSWNSGALTSGVHTFPAVLQSSGLYSLSSVVTVPSSSLGTQTYICNVNHKPSNTKVDKKVEPKSCDKTHTCPPCPAPELLGGPSVFLFPPKPKDTLMISRTPEVTCVVVDVSHEDPEVKFNWYVDGVEVHNAKTKPREEQYNSTYRVVSVLTVLHQDWLNGKEYKCKVSNKALPAPIEKTISKAKGQPREPQVCTLPPSRDELTENQVSLTCLVKGFYPSDIAVEWESNGQPENNYKTTPPVLDSDGSFFLYSWLTVDKSRWQQGNVFSCSVMHEALHNHYTQKSLSLSPG
light: DIQMTQSPSSVSASVGDRVTITCRASQGISSWLAWYQQKPGKAPKLLIYAASSLQSGVPSRFSGSGSGTDFTLTISSLQPEDFATYYCQQGVSFPRTFGGGTKVEIKRTVAAPSVFIFPPSDEQLKSGTASVVCLLNNFYPREAKVQWKVDNALQSGNSQESVTEQDSKDSTYSLSSTLTLSKADYEKHKVYACEVTHQGLSSPVTKSFNRGEC

Kd [5]: 0.71 nM and 0.77 nM | koff [5]: 0.000508 s⁻¹ and 0.000541 s⁻¹ | kon [5]: 715000 M⁻¹ s⁻¹ and 704000 M⁻¹ s⁻¹ | Kd [6]: 0.74 nM | koff [6]: 0.000525 s⁻¹ | kon [6]: 710000 M⁻¹ s⁻¹ | EC50 [7]: 4.2 nM | EC50 [8]: 6.13 nM
B3: AB0010 (other)
chain: DIQMTQSPSSVSASVGDRVTITCRASQGISSWLAWYQQKPGKAPKLLIYAASSLQSGVPSRFSGSGSGTDFTLTISSLQPEDFATYYCQQGVSFPRTFGGGTKVEIKGGGGSGGGGSGGGGSGGGGSEVQLVESGGGLVKPGGSLRLSCAASGFTFSSYSMNWVRQAPGKGLEWVSSISSSSSYIYYADSVKGRFTISRDNAKNSLYLQMNSLRAEDTAVYYCARGAPIGAAAGWFDPWGQGTLVTVSSGSDKTHTCPPCPAPELLGGPSVFLFPPKPKDTLMISRTPEVTCVVVDVSHEDPEVKFNWYVDGVEVHNAKTKPREEQYNSTYRVVSVLTVLHQDWLNGKEYKCKVSNKALPAPIEKTISKAKGQPREPRVYTLPPCRDELTKNQVSLTCLVKGFYPSDIAVEWESNGQPENNYKTTPPVLVSDGSFTLYSKLTVDKSRWQQGNVFSCSVMHEALHNHYTQKSLSLSPG
heavy: QLQLQESGPGLVKPSETLSLTCTVSGFSLTNYGLHWIRQPPGKGLEWIGVIWSGGKTDYNPSLKSRVTISKDTSKNQFSLKLSSVQAADTAVYYCAKYDYDDSLDYWGQGTLVTVSSASTKGPSVFPLAPSSKSTSGGTAALGCLVKDYFPEPVTVSWNSGALTSGVHTFPAVLQSSGLYSLSSVVTVPSSSLGTQTYICNVNHKPSNTKVDKKVEPKSCDKTHTCPPCPAPELLGGPSVFLFPPKPKDTLMISRTPEVTCVVVDVSHEDPEVKFNWYVDGVEVHNAKTKPREEQYNSTYRVVSVLTVLHQDWLNGKEYKCKVSNKALPAPIEKTISKAKGQPREPQVCTLPPSRDELTENQVSLTCLVKGFYPSDIAVEWESNGQPENNYKTTPPVLDSDGSFFLYSWLTVDKSRWQQGNVFSCSVMHEALHNHYTQKSLSLSPG
light: DIQMTQSPSSLSASVGDRVTITCHASQNINFWLSWYQQKPGKAPKLLIYEASNLHTGVPSRFSGSGSGTRFTLTISSLQPEDIATYYCQQSHSYPLTFGGGTKLEIKRTVAAPSVFIFPPSDEQLKSGTASVVCLLNNFYPREAKVQWKVDNALQSGNSQESVTEQDSKDSTYSLSSTLTLSKADYEKHKVYACEVTHQGLSSPVTKSFNRGEC
notes: NKG2D scFv-Fc, CLEC12A Fab-Fc
